Numbering of substitutions follows the chain as printed.
T1: human CD16b (NA1), full length, on FlpinCHO cells (human, UniProt O75015 17-200)
T1 construct: also called FlpinCHO-human CD16b (NA1)
T1 chain: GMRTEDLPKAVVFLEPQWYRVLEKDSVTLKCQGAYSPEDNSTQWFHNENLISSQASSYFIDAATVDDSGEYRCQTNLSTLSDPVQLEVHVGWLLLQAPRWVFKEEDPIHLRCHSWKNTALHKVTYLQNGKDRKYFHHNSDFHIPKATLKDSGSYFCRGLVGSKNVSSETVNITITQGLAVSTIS

T2: human CD16b (NA2), full length, on FlpinCHO cells (human, UniProt O75015 17-200)
T2 construct: also called FlpinCHO-human CD16b (NA2)
T2 chain: T1 chain with R20S, N49S, D66N, V90I

B1: VHH02 VHH-Fc antibody (Fc fusion)
chain: EVQLVESGGGLVQAGGSLRLSCATSGITFSSYAMGWYRQAPGKQRELVAGINRFGLTNYADSVKGRFTISRDNAKNTVYLQMTSLKSEDTAVYYCNTGGVYSHPNYYTGIYWGQGTQVTVSSEPKSSDKTHTCPPCPAPEFEGGPSVFLFPPKPKDTLMISRTPEVTCVVVAVSHEDPEVKFNWYVDGVEVHNAKTKPREEQYNSTYRVVSVLTVLHQDWLNGKEYKCKVSNKALPAPIEKTISKAKGQPREPQVYTLPPSREEMTKNQVSLTCLVKGFYPSDIAVEWESNGQPENNYKTTPPVLDSDGSFFLYSKLTVDKSRWQQGNVFSCSVMHEALHNHYTQKSLSLSPGK
B2: VHH13 VHH-Fc antibody (Fc fusion)
chain: B1 chain with L4V, T24A, G50A, N76S, S87P, N105D, I110T
B3: VHH14 VHH-Fc antibody (Fc fusion)
chain: B1 chain with T24A, G35A, A40D, G50A, Q81E, S87P, I110T
B4: VHH12-03 humanized VHH-Fc antibody (Fc fusion)
chain: EVQLVESGGGLVQPGGSLRLSCAASGITFSSYAMGWYRQAPGKQRELVAAINRFGLTNYVDSVKGRFTISRDNAKNSLYLQMNSLRAEDTAVYYCNTGGVYSHPDYYTGTYWGQGTMVTVSSEPKSSDKTHTCPPCPAPEEFGGPSVFLFPPKPKDTLMISRTPEVTCVVVAVSHEDPEVKFNWYVDGVEVHNAKTKPREEQYNSTYRVVSVLTVLHQDWLNGKEYKCKVSNKALPAPIEKTISKAKGQPREPQVYTLPPSREEMTKNQVSLTCLVKGFYPSDIAVEWESNGQPENNYKTTPPVLDSDGSFFLYSKLTVDKSRWQQGNVFSCSVMHEALHNHYTQKSLSLSPGK
B5: VHH12-02 humanized VHH-Fc antibody (Fc fusion)
chain: B4 chain with N58Y
B6: VHH12-08 humanized VHH-Fc antibody (Fc fusion)
chain: B4 chain with V60A, S62F, D72V

Each binder was assayed against T3, human CD16a (158F), full length, on FlpinCHO cells (human, UniProt P08637 17-254) (assay: FACS, biotinylated antibody).

Row | Binder | EC50 | Maximum mean fluorescence intensity
1 | B1 | 330 pM | 6310
2 | B2 | 160 pM | 6240
3 | B3 | 270 pM | 5510

What follows are binders tested against T4, human CD16a (158V), full length, on cells (human, UniProt P08637 17-254) (assay: FACS, biotinylated antibody).
T4 construct: also used as target for the bought Jurkat-NFAT reporter line stably expressing human CD16a (158V); also called FlpinCHO-human CD16a (158V); FlpinCHO-CD16a (158V)

Row | Binder | EC50 | Maximum mean fluorescence intensity
4 | B1 | 330 pM | 7300
5 | B2 | 250 pM | 9620
6 | B3 | 380 pM | 8180

These binders were tested against T5, Human CD16a (158V)-his (human) (assay: SPR (Biacore), antibody captured on Protein A).
T5 construct: entry holds ECD, AVI tag, linker and His tag
Procedure, shortened: (§1)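 Protein A–captured antibody was probed with CD16-his ECD in HBS-EP+ at 25 °C: five 2-fold dilutions from 200 nM, 240 s at 30 μL/min, dissociation up to 600 s. Glycine pH 1.5 regenerated the chip. Apparent KD came from a double-referenced 1:1 Langmuir fit.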

Row | Binder | Kd | koff | kon
7 | B1 | 96500 pM | 0.0179 s⁻¹ | 186000 M⁻¹ s⁻¹
8 | B2 | 19800 pM | 0.0362 s⁻¹ | 1.83e+06 M⁻¹ s⁻¹
9 | B3 | 19300 pM | 0.0602 s⁻¹ | 3.12e+06 M⁻¹ s⁻¹

The binders below were run against T6, Human CD16a (158F)-his (human) (assay: SPR (Biacore), antibody captured on Protein A).
T6 construct: entry holds ECD, AVI tag, linker and His tag
Procedure, shortened: as §1

Row | Binder | Kd | koff | kon
10 | B4 | 55700 pM | 0.0244 s⁻¹ | 438000 M⁻¹ s⁻¹
11 | B5 | 75100 pM | 0.0237 s⁻¹ | 316000 M⁻¹ s⁻¹
12 | B1 | 132000 pM | 0.027 s⁻¹ | 205000 M⁻¹ s⁻¹
13 | B2 | 22200 pM | 0.0192 s⁻¹ | 866000 M⁻¹ s⁻¹
14 | B6 | 48600 pM | 0.0294 s⁻¹ | 605000 M⁻¹ s⁻¹
15 | B3 | 25000 pM | 0.0296 s⁻¹ | 1.18e+06 M⁻¹ s⁻¹

Target: T1, human CD16b (NA1), full length, on …
Assay: FACS on FlpinCHO cells
Procedure, shortened: (§2)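 EC50 values come from fitted MFI curves measured by FACS. Antibody dilutions were bound for 1 hour on ice to CD16b-transfected FlpinCHO cells suspended in PBS with 2% BSA blocking solution.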

Row | Binder | EC50 | Maximum mean fluorescence intensity
16 | B1 | 4270 pM | 31900
17 | B2 | 770 pM | 51400
18 | B3 | 930 pM | 41900

Target: T2, human CD16b (NA2), full length, on …
Assay: FACS on FlpinCHO cells
Procedure, shortened: as §2

Row | Binder | EC50 | Maximum mean fluorescence intensity
19 | B1 | 5450 pM | 52400
20 | B2 | 1110 pM | 70200
21 | B3 | 1440 pM | 61400

Each binder was assayed against T3, human CD16a (158F), full length, on … (assay: FACS on FlpinCHO cells).
Procedure, shortened: (§3)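 EC50 comes from fitted concentration–MFI curves. Antibody dilutions were bound to the cells for 1 hour on ice in PBS blocking buffer with 2% BSA, followed by washing and flow cytometric readout.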

Row | Binder | EC50 | Maximum mean fluorescence intensity
22 | B1 | 1170 pM | 5210
23 | B2 | 180 pM | 6020
24 | B3 | 230 pM | 5750

Each binder was assayed against T4, human CD16a (158V), full length, on … (assay: FACS on FlpinCHO cells).
Procedure, shortened: as §3

Row | Binder | EC50 | Maximum mean fluorescence intensity
25 | B1 | 300 pM | 6000
26 | B2 | 240 pM | 6660
27 | B3 | 270 pM | 6250

What follows are binders tested against T3, human CD16a (158F), full length, on … (assay: FACS, biotinylated antibody, +10 mg/mL human immunoglobulin).

Row | Binder | EC50 | Maximum mean fluorescence intensity
28 | B1 | 1210 pM | 6020
29 | B2 | 670 pM | 5830
30 | B3 | 910 pM | 5070

These binders were tested against T4, human CD16a (158V), full length, on … in the same assay as above.

Row | Binder | EC50 | Maximum mean fluorescence intensity
31 | B1 | 1180 pM | 7660
32 | B2 | 1090 pM | 9660
33 | B3 | 1100 pM | 7900

These binders were tested against T7, cynomolgus monkey CD16, full length, on FlpinCHO cells (cynomolgus monkey, UniProt Q8SPW2 17-254) (assay: FACS on FlpinCHO cells).
T7 construct: also called FlpinCHO-cyno CD16; Flipin CHO-cyno CD16
T7 sequence (Q8SPW2 other isoform, or with tags, fused parts or gaps limits assumed): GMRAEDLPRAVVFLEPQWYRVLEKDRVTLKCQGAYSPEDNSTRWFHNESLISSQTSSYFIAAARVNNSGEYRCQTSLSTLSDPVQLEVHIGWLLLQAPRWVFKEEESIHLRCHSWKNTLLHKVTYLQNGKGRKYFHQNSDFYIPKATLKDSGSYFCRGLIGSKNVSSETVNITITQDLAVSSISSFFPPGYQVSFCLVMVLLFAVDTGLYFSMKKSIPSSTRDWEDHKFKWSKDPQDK
Description: (§4) The required cells were scale-up cultured in a T-75 cell culture flask to the logarithmic growth phase. The medium was aspirated, and the cells were washed twice with a PBS buffer and then digested with trypsin. After the digestion was terminated, the cells were washed twice with the PBS buffer. The cells were counted, and then the cell pellet was resuspended with a [PBS+2% (w/w) BSA] blocking solution to 2×10⁶ cells/ml, and added to a 96-well FACS reaction plate at 50 μl/well. […] 50 μl/well of the antibody to be detected was added at different concentrations, and incubated on ice for 1 hour. […] The mixture was centrifuged and washed 5 times with PBS, and FACS (FACS Canto II, purchased from BD Company) was used for detection and result analysis. Data analysis was performed by software (CellQuest) to obtain the mean fluorescence intensity (MFI) of the cells. Then, software (GraphPad Prism8) was used for analysis, data fitting and EC50 value calculation.
(§5) Flipin CHO-cyno CD16 cells were subjected to FACS detection and data analysis according to the method of Example 3.1.

Row | Binder | EC50 | Maximum mean fluorescence intensity
34 | B4 | 800 pM | 18000
35 | B5 | 740 pM | 16900
36 | B6 | 440 pM | 18300

Target: T3, human CD16a (158F), full length, on …
Assay: FACS on FlpinCHO cells
Remark: another data set of the same source
Description: as §4
(§6) The binding of a humanized antibody to FlpinCHO-human CD16a cells was detected according to the method of Example 3.1.

Row | Binder | EC50 | Maximum mean fluorescence intensity
37 | B4 | 480 pM | 8810
38 | B5 | 460 pM | 7440
39 | B6 | 310 pM | 9010

Target: T4, human CD16a (158V), full length, on …
Assay: FACS on FlpinCHO cells
Remark: another data set of the same source
Description: as §4, §6

Row | Binder | EC50 | Maximum mean fluorescence intensity
40 | B4 | 480 pM | 7750
41 | B5 | 450 pM | 6600
42 | B6 | 320 pM | 7920

Each binder was assayed against T8, CD16 on primary human NK cells (human, UniProt P08637 17-254) (assay: FACS on human NK cells).
T8 construct: whole, on cells; also called resting NK cells
Procedure, shortened: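 EC50 came from curve fitting of flow-cytometric MFI. Antibody titrations were bound for 1 hour on ice to fresh human NK cells blocked in PBS with 2% (w/w) BSA (2×10⁶ cells/ml), followed by five PBS washes before acquisition.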

Row | Binder | EC50 | Maximum mean fluorescence intensity
43 | B2 | 150 pM | 2630
44 | B3 | 170 pM | 2620

Target: T7, cynomolgus monkey CD16, full length, on …
Assay: FACS on FlpinCHO cells
Remark: another data set of the same source
Description: as §4, §5

Row | Binder | EC50 | Maximum mean fluorescence intensity
45 | B1 | 880 pM | 17100
46 | B2 | 240 pM | 21400
47 | B3 | 180 pM | 16400

Target: T1, human CD16b (NA1), full length, on …
Assay: FACS on FlpinCHO cells
Remark: another data set of the same source
Description: as §4
(§7) The binding of an antibody to be detected to FlpinCHO-human CD16b cells was detected according to the method of Example 3.1.

Row | Binder | EC50 | Maximum mean fluorescence intensity
48 | B4 | 1370 pM | 47300
49 | B5 | 940 pM | 39700
50 | B6 | 980 pM | 52100

Target: T2, human CD16b (NA2), full length, on …
Assay: FACS on FlpinCHO cells
Remark: another data set of the same source
Description: as §4, §7

Row | Binder | Maximum mean fluorescence intensity
51 | B4 | 72700
52 | B5 | 73300
53 | B6 | 77300

Each binder was assayed against T4, human CD16a (158V), full length, on … (assay: cell-based or functional assay).

Row | Binder | EC50, activation activity for Jurkat cell | Maximum fluorescence value
54 | B4 | 20 pM | 155000
55 | B5 | 10 pM | 148000
56 | B6 | 10 pM | 142000

Target: T4, human CD16a (158V), full length, on …
Assay: cell-based or functional assay
Remark: another data set of the same source

Row | Binder | EC50, activation activity for Jurkat cell | Maximum fluorescence value
57 | B1 | 300 pM | 178000
58 | B2 | 20 pM | 165000
59 | B3 | 20 pM | 169000

Reference: patent publication US20240343811A1 (SHANDONG SIMCERE BIOPHARMACUTICAL, published 2024)
